Measurements as given in patent publication US7632650B2, “Diagnostics and therapeutic uses of topors” (University of Medicine and Dentistry of New Jersey, priority 2002, dated 2009).

Key:
[1] = test system: HeLa cells expressing GFP-topors or GFP-PML; experiment: imaging of GFP-topors or GFP-PML in nuclear bodies before and after treatment; type: cell-based, human; details: 10 μM, thirty minutes
Method: Acute promyelocytic leukemia, a type of cancer affecting the blood, is characterized by an abnormal block in the development of stem cells. It has now been discovered that topors localizes in nuclear bodies associated with promyelocytic leukemia (PML) oncogenic domains. In these experiments HeLa cells were immunostained with antibodies recognizing both topors and PML. Separate and merged fluorescent images from a representative cell were analyzed. PML nuclear bodies are nuclear depot sites, which are disrupted in cells from patients with promyelocytic leukemia with t (15;17) . Topors relocalized to the nucleoplasm after DNA damage. […] In these experiments, HeLa cells expressing GFP-topors or GFP-PML were imaged before and after treatment with 0.1% DMSO, 10 μM DRB, 10 μM CPT, or 30 μM cycloheximide for thirty minutes.

top1 = target: T1, top1 (Homo sapiens, UniProt P11387); experiment: in vitro top1 sumoylation with purified components; type: biochemical; details: purified sumo conjugation components, purified top1 and topors
T1 sequence (P11387 1-765): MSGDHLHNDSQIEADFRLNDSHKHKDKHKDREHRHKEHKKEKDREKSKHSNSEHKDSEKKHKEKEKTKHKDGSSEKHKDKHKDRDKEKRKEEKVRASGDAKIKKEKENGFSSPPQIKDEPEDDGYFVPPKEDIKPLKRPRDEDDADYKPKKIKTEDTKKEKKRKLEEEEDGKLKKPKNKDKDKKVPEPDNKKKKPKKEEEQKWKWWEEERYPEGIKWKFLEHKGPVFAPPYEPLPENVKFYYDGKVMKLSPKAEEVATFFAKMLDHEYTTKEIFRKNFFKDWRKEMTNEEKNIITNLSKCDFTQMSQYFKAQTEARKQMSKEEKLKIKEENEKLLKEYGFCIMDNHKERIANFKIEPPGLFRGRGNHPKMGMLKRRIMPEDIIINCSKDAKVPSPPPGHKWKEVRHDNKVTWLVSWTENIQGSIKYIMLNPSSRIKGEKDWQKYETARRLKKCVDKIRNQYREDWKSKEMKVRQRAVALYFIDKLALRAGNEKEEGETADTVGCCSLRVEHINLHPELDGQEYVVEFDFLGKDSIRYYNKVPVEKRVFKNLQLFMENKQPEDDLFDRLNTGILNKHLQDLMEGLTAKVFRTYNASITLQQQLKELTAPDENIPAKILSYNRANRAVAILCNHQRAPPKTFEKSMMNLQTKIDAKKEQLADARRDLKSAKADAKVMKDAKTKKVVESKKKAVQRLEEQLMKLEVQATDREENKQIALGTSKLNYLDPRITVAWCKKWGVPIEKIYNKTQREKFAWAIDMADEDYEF
Method: Topors is homologous in the RING domain to proteins implicated in conjugation of ubiquitin and SUMO, such as MDM2 and BRCA1. Previously, it has been shown that topors binds to the N-terminus of top1. […] Topors also redistributes from PML (promyelocytic leukemia) nuclear bodies to a diffuse nuclear localization when exposed to CPT. When incubated with a HeLa cell fraction containing SAE1/SAE2, purified SUMO-1, and purified Ubc9, minimal top1-SUMO conjugates could be detected using Top1 and SUMO antibodies.
Using purified components of the sumo conjugation system as well as purified top1 and topors, top1-SUMO conjugates were detected. Removing any of the sumoylation components or topors abrogated top1 sumoylation.

ubiquitin = experiment: in vitro ubiquitination reaction with E1, E2 proteins and ubiquitin; type: biochemical; details: 400 ng E1, 200 ng E2, 3 μg ubiquitin, ~100 ng GST-topors or GST
Method: This analysis was carried out using reactions containing 400 ng E1, 200 ng of various E2 proteins, 3 μg of ubiquitin, and either ˜100 ng GST-topors or GST. Reaction products were resolved by SDS-PAGE under reducing conditions. Migration of probable poly-ubiquitin chains was determined. All E2s were active as assessed by thiolester formation.

IkBα = target: T2, IkBα (Homo sapiens, UniProt P25963); experiment: in vitro sumoylation of IkBα; type: biochemical; details: E1 and Ubc9
T2 sequence (P25963 1-317): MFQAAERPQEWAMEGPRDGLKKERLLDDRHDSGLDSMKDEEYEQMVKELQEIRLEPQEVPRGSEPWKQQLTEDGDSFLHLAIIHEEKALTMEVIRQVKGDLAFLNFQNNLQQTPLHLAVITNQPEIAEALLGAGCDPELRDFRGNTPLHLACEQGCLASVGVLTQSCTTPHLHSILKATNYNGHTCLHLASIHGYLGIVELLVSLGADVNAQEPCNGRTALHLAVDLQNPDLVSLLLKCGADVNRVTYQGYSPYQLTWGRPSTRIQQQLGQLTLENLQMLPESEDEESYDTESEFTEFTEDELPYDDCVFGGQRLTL
Method: (§1) Reaction products were analyzed using monoclonal anti-p53 and polyclonal anti-IkBα antibodies.

mammalian cells = experiment: SUMO-2 conjugate formation in cells; type: cell-based
Text: Additionally, it was shown that topors functions as an E3-type ubiquitin ligase an E3-type SUMO ligase for topoisomerase and p53. Thus, topors is a dual function ubiquitin and SUMO ligase. Recombinant topors enhances formation of polyubiquitin conjugates by specific E2 ubiquitin enzymes in vitro, with the RING domain necessary and sufficient for this activity. While topors-induced ubiquitination of bacterially expressed top1 was unable to be detected in vitro, similar assays using Ubc9, SAE1/SAE2, and SUMO-1 indicate that topors stimulates formation of top1-SUMO-1 conjugates by Ubc9. […] Instead, this activity maps to the 536-704 region, which contains a nuclear localization sequence and is within the top1-binding region. Ectopic expression of topors in HeLa cells increases formation of SUMO-2 conjugates.
as §1

p53 = p53 (Homo sapiens, UniProt P04637); experiment: in vitro sumoylation of p53; type: biochemical; details: E1 and Ubc9
Chain of p53 (P04637 whole entry, species assumed): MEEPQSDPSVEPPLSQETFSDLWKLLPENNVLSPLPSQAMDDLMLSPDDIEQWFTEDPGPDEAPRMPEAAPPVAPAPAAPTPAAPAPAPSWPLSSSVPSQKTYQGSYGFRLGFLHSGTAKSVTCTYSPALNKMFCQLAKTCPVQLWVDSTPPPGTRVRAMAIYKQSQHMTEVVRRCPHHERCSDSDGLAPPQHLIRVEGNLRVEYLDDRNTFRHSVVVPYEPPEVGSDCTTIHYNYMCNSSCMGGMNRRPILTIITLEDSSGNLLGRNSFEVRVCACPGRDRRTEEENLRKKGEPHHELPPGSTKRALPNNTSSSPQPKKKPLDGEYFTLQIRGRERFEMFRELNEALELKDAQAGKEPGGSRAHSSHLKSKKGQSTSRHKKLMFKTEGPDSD
Method: as §1

[2] = test system: cervical cancer cell line; experiment: overexpression of topors in cancer cell line; type: cell-based
Text: The topors protein was not detected in lysates from several different tumor cell lines. In this regard, in matched normal and tumor human tissue specimens, the topors protein was detectable only in normal tissues (FIGS. 3 and 4).

CC[C@@]1(O)C(=O)OCc2c1cc1n(c2=O)Cc2cc3ccccc3nc2-1 [CPT, camptothecin]
dispersion of topors / PML from nuclear bodies [1]: induce rapid dispersion of topors but not PML from nuclear bodies

OC[C@H]1O[C@@H](n2cnc3cc(Cl)c(Cl)cc32)[C@H](O)[C@@H]1O [DRB]
dispersion of topors / PML from nuclear bodies [1]: induce rapid dispersion of topors but not PML from nuclear bodies

B1: topors: RING protein that binds topoisomerase 1 and p53; dual E3 ubiquitin/SUMO ligase (protein)
chain: MGSQPPLGSPLSREEGEAPPPAPASEGRRRSRRVRLRGSCRHRPSFLGCRELAASAPARPAPASSEIMASAAKEFKMDNFSPKAGTSKLQQTVPADASPDSKCPICLDRFDNVSYLDRCLHKFCFRCVQEWSKNKAECPLCKQPFDSIFHSVRAEDDFKEYVLRPSYNGSFVTPDRRFRYRTTLTRERNASVYSPSGPVNRRTTTPPDSGVLFEGLGISTRPRDVEIPQFMRQIAVRRPTTADERSLRKIQEQDIINFRRTLYRAGARVRNIEDGGRYRDISAEFFRRNPACLHRLVPWLKRELTVLFGAHGSLVNIVQHIIMSNVTRYDLESQAFVSDLRPFLLNRTEHFIHEFISFARSPFNMAAFDQHANYDCPAPSYEEGSHSDSSVITISPDEAETQELDINVATVSQAPWDDETPGPSYSSSEQVHVTMSSLLNTSDSSDEELVTGGATSQIQGVQTNDDLNNDSDDSSDNCVIVGFVKPLAERTPELVELSSDSEDLGSYEKMETVKTQEQEQSYSSGDSDVSRCSSPHSVLGKDEQINKGHCDSSTRIKSKKEEKRSTSLSSPRNLNSSVRGDRVYSPYNHRHRKRGRSRSSDSRSQSRSGHDQKNHRKHHGKKRMKSKRSRSRESSRPRGRRDKKRSRTRDSSWSRRSQTLSLSSESTSRSRSRSSDHGKRRSRSRNRDRYYLRNNYGSRYKWEYTYYSRNKDRDGYESSYRRRTLSRAHYSRQSSSPEFRVQSFSERTNARKKNNHSERKYYYYERHRSRSLSSNRSRTASTGTDRVRNEKPGGKRKYKTRHLEGTNEVAQPSREFASKAKDSHYQKSSSKLDGNYKNESDTFSDSRSSDRETKHKRRKRKTRSLSVEIVYEGKATDTTKHHKKKKKKHKKKHKKHHGDNASRSPVVITIDSDSDKDSEVKEDTECDNSGPQDPLQNEFLAPSLEPFETKDVVTIEAEFGVLDKECDIATLSNNLNNANKTVDNIPPLAASVEQTLDVREESTFVSDLENQPSNIVSLQTEPSRQLPSPRTSLMSVCLGRDCDMS
top1 sumoylation in vitro (top1): enhances top1 sumoylation in vitro | E3 ubiquitin ligase function (poly-ubiquitin chains) (ubiquitin): functions as an E3 ubiquitin ligase | sumoylation of IkBα (IkBα): not IkBα | SUMO-2 conjugates (mammalian cells): increases SUMO-2 conjugates | sumoylation of p53 (p53): activates sumoylation of p53 | effect of overexpression on cancer cells [2]: cell death
